B6: phosphorylated PASC-Kin (PASC-Kin-P) (domain or fragment, E. coli, UniProt P0AEC8 212-539, looked up)
chain: LEPYEISTLFEQRQAMLQSIKEGVVAVDDRGEVTLINDAAQELLNYRKSQDDEKLSTLSHSWSQVVDVSEVLRDGTPRRDEEITIKDRLLLINTVPVRSNGVIIGAISTFRDKTEVRKLMQRLDGLVNYADALRERSHEFMNKLHVILGLLHLKSYKQLEDYILKTANNYQEEIGSLLGKIKSPVIAGFLISKINRATDLGHTLILNSESQLPDSGSEDQVATLITTLGNLIENALEALGPEPGGEISVTLHYRHGWLHCEVNDDGPGIAPDKIDHIFDKGVSTKGSERGVGLALVKQQVENLGGSIAVESEPGIFTQFFVQIPWDGE
modifications: phosphorylated by autophosphorylation with ATP; phosphorylation site His349
notes: cytoplasmic part of E. coli DcuS, residues 212-539, autophosphorylated with ATP; source: E. coli BL21(DE3), purified (Ni-NTA agarose), then incubated with 1 mM ATP; not shown: His6, N-terminal, kept
B7: His6-PASc-Kin (DcuS [AS 212-539]) (domain or fragment, E. coli, UniProt P0AEC8 212-539, looked up)
chain: LEPYEISTLFEQRQAMLQSIKEGVVAVDDRGEVTLINDAAQELLNYRKSQDDEKLSTLSHSWSQVVDVSEVLRDGTPRRDEEITIKDRLLLINTVPVRSNGVIIGAISTFRDKTEVRKLMQRLDGLVNYADALRERSHEFMNKLHVILGLLHLKSYKQLEDYILKTANNYQEEIGSLLGKIKSPVIAGFLISKINRATDLGHTLILNSESQLPDSGSEDQVATLITTLGNLIENALEALGPEPGGEISVTLHYRHGWLHCEVNDDGPGIAPDKIDHIFDKGVSTKGSERGVGLALVKQQVENLGGSIAVESEPGIFTQFFVQIPWDGE
notes: cytoplasmic part of E. coli DcuS (Linker, PASC and kinase domains), residues 212-539; unphosphorylated; pET28a derivative; homodimer by SEC (Mr 84 kDa, monomer 40.4 kDa); also called His6-PASc-Kinase; 6His-PASc-Kinase; source: E. coli BL21(DE3), purified (Ni-NTA agarose); not shown: His6, N-terminal, kept

What was measured:
[1] = target: B7; assay: MST; eYFP-L-DcuR at 0.1 μM, His6-PASC-Kin titrated from 10^-1 to 2 x 10^4 nM; Tris/HCl pH 7.7, 10 mM MgCl2, 2 mM DTT; 25°C; Monolith NT.115; 1:1 binding model; Kd refers to monomer concentrations; conditions: both partners purified
[2] = target: B6; assay: as above; conditions: both partners purified
T25-DcuR = target: T1, T25-DcuR (E. coli, UniProt P0AD01 1-239); assay: two-hybrid; bacterial two-hybrid BACTH in E. coli BTH101 (ΔcyaA); T25 N-terminally on DcuR, T18 C-terminally on DcuS or PASC-Kin; β-galactosidase activity in Miller units; wild-type pair also with fumarate; conditions: partners not purified
T1 construct: response regulator DcuR of E. coli (REC and HTH domains); also called DcuR-fusion; source: bacterial two-hybrid (BACTH) fusion in E. coli BTH101; not shown: T25 domain of Bordetella pertussis adenylate cyclase, N-terminal, kept
T1 sequence (looked up): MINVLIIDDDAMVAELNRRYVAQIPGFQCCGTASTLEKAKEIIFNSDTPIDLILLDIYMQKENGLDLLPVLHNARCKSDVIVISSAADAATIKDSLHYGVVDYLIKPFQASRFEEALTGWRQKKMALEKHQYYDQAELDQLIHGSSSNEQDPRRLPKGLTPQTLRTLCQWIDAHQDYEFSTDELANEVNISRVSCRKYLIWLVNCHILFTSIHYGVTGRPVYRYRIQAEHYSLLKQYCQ

T25-DcuR(D56N) = target: T2, T25-DcuR(D56N) (E. coli, UniProt P0AD01 1-239, D56N); assay: as above; conditions: partners not purified
T2 construct: E. coli DcuR, as pMW427 (T25-DcuR) with the phosphorylation site Asp56 changed to Asn; source: bacterial two-hybrid (BACTH) fusion in E. coli BTH101; not shown: T25 domain of Bordetella pertussis adenylate cyclase, N-terminal, kept
T2 sequence (looked up): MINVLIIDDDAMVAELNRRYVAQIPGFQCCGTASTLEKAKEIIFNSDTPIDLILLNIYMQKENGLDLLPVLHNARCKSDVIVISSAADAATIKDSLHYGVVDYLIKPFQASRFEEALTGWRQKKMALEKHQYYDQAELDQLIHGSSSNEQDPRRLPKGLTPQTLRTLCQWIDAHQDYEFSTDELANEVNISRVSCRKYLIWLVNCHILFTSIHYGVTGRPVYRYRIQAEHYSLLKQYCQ

[3] = target: the molecule itself; assay: SEC; mixtures of PASC-Kin and DcuR (phosphate-free or phosphorylated), molar ratios 1:1.44, 1:2, 1:1.4 with PASC-Kin at 40.4 μM (also 1:0.2, 1:5, 1:10 for PASC-Kin-P and DcuR); HiLoad 16/600 Sephadex 200; peak fractions analysed by SDS-PAGE and quantified with ImageJ
His6-DcuR = target: T3, His6-DcuR (E. coli, UniProt P0AD01 1-239); assay: as above; conditions: both partners purified
T3 construct: response regulator DcuR of E. coli; unphosphorylated; also called DcuR-6His; source: E. coli BL21(DE3), purified (Ni-NTA agarose)
T3 sequence (looked up): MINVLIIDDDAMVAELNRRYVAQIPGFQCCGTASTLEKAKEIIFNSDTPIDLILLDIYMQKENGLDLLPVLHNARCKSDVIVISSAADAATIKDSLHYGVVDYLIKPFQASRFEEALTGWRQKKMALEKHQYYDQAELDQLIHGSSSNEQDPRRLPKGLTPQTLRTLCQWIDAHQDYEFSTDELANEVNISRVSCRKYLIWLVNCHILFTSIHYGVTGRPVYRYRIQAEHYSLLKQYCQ

[4] = target: the molecule itself; assay: SEC; each protein alone on HiLoad 16/600 Sephadex 200; His6-PASc-Kinase 45 μM, DcuR 55 μM; 50 mM Tris-HCl, 1 mM DTT, 50 mM KCl, 5 mM MgCl2, pH 7.7, 25°C; Mr by calibration with protein standards

B1: eYFP-L-DcuR (natural protein, E. coli, UniProt P0AD01 1-239, looked up)
chain: MINVLIIDDDAMVAELNRRYVAQIPGFQCCGTASTLEKAKEIIFNSDTPIDLILLDIYMQKENGLDLLPVLHNARCKSDVIVISSAADAATIKDSLHYGVVDYLIKPFQASRFEEALTGWRQKKMALEKHQYYDQAELDQLIHGSSSNEQDPRRLPKGLTPQTLRTLCQWIDAHQDYEFSTDELANEVNISRVSCRKYLIWLVNCHILFTSIHYGVTGRPVYRYRIQAEHYSLLKQYCQ
notes: response regulator DcuR of E. coli, joined genetically to eYFP by a short linker; unphosphorylated; The His6 tag is printed at the N-terminus and at the C-terminus in the same paragraph; also called eYfp-Linker-DcuR; His6-eYfp-Linker-DcuR; source: E. coli BL21(DE3), purified (Ni-NTA agarose)
Q: How did the Kd [1] turn out when B1 was run?
A: 1380 nM

Q: And the Kd [2]?
A: 22 nM

B2: eYFP-L-DcuR-P (natural protein, E. coli, UniProt P0AD01 1-239, looked up)
chain: MINVLIIDDDAMVAELNRRYVAQIPGFQCCGTASTLEKAKEIIFNSDTPIDLILLDIYMQKENGLDLLPVLHNARCKSDVIVISSAADAATIKDSLHYGVVDYLIKPFQASRFEEALTGWRQKKMALEKHQYYDQAELDQLIHGSSSNEQDPRRLPKGLTPQTLRTLCQWIDAHQDYEFSTDELANEVNISRVSCRKYLIWLVNCHILFTSIHYGVTGRPVYRYRIQAEHYSLLKQYCQ
modifications: phosphorylated with carbamoyl phosphate; phosphorylation site Asp56 of DcuR
notes: response regulator DcuR of E. coli, joined genetically to eYFP by a short linker, phosphorylated with carbamoyl phosphate; also called eYFP-DcuR~P; source: E. coli BL21(DE3), purified (Ni-NTA agarose), then incubated with 50 mM carbamoyl phosphate
Q: How did the Kd [1] turn out when B2 was run?
A: 28 nM

B3: PASC-Kin(H349A)-T18 (domain or fragment, E. coli, UniProt P0AEC8 211-539, looked up)
chain: GLEPYEISTLFEQRQAMLQSIKEGVVAVDDRGEVTLINDAAQELLNYRKSQDDEKLSTLSHSWSQVVDVSEVLRDGTPRRDEEITIKDRLLLINTVPVRSNGVIIGAISTFRDKTEVRKLMQRLDGLVNYADALRERSAEFMNKLHVILGLLHLKSYKQLEDYILKTANNYQEEIGSLLGKIKSPVIAGFLISKINRATDLGHTLILNSESQLPDSGSEDQVATLITTLGNLIENALEALGPEPGGEISVTLHYRHGWLHCEVNDDGPGIAPDKIDHIFDKGVSTKGSERGVGLALVKQQVENLGGSIAVESEPGIFTQFFVQIPWDGE
notes: cytoplasmic part of E. coli DcuS, as pMW1076 [DcuS(211-539)] with H349A; source: bacterial two-hybrid (BACTH) fusion in E. coli BTH101; not shown: T18 domain of Bordetella pertussis adenylate cyclase, C-terminal, kept
Q: How did the “% of wild-type BACTH activity” value (T25-DcuR) turn out when B3 was run?
A: 108%

B4: DcuS-T18 (natural protein, E. coli, UniProt P0AEC8 1-543, looked up)
chain: MRHSLPYRMLRKRPMKLSTTVILMVSAVLFSVLLVVHLIYFSQISDMTRDGLANKALAVARTLADSPEIRQGLQKKPQESGIQAIAEAVRKRNDLLFIVVTDMQSLRYSHPEAQRIGQPFKGDDILKALNGEENVAINRGFLAQALRVFTPIYDENHKQIGVVAIGLELSRVTQQINDSRWSIIWSVLFGMLVGLIGTCILVKVLKKILFGLEPYEISTLFEQRQAMLQSIKEGVVAVDDRGEVTLINDAAQELLNYRKSQDDEKLSTLSHSWSQVVDVSEVLRDGTPRRDEEITIKDRLLLINTVPVRSNGVIIGAISTFRDKTEVRKLMQRLDGLVNYADALRERSHEFMNKLHVILGLLHLKSYKQLEDYILKTANNYQEEIGSLLGKIKSPVIAGFLISKINRATDLGHTLILNSESQLPDSGSEDQVATLITTLGNLIENALEALGPEPGGEISVTLHYRHGWLHCEVNDDGPGIAPDKIDHIFDKGVSTKGSERGVGLALVKQQVENLGGSIAVESEPGIFTQFFVQIPWDGERSNR
notes: membrane-integral C4-dicarboxylate sensor kinase DcuS of E. coli, full length; also called full-length DcuS; DcuS-fusion; source: bacterial two-hybrid (BACTH) fusion in E. coli BTH101; not shown: T18 domain of Bordetella pertussis adenylate cyclase, C-terminal, kept
Q: For B4, which “% of wild-type BACTH activity” value (T25-DcuR(D56N)) is on record?
A: 94%

B5: DcuS(H349A)-T18 (natural protein, E. coli, UniProt P0AEC8 1-543, looked up)
chain: MRHSLPYRMLRKRPMKLSTTVILMVSAVLFSVLLVVHLIYFSQISDMTRDGLANKALAVARTLADSPEIRQGLQKKPQESGIQAIAEAVRKRNDLLFIVVTDMQSLRYSHPEAQRIGQPFKGDDILKALNGEENVAINRGFLAQALRVFTPIYDENHKQIGVVAIGLELSRVTQQINDSRWSIIWSVLFGMLVGLIGTCILVKVLKKILFGLEPYEISTLFEQRQAMLQSIKEGVVAVDDRGEVTLINDAAQELLNYRKSQDDEKLSTLSHSWSQVVDVSEVLRDGTPRRDEEITIKDRLLLINTVPVRSNGVIIGAISTFRDKTEVRKLMQRLDGLVNYADALRERSAEFMNKLHVILGLLHLKSYKQLEDYILKTANNYQEEIGSLLGKIKSPVIAGFLISKINRATDLGHTLILNSESQLPDSGSEDQVATLITTLGNLIENALEALGPEPGGEISVTLHYRHGWLHCEVNDDGPGIAPDKIDHIFDKGVSTKGSERGVGLALVKQQVENLGGSIAVESEPGIFTQFFVQIPWDGERSNR
notes: E. coli DcuS, as pMW428 (full-length DcuS-T18) with the phosphorylation site His349 changed to Ala; source: bacterial two-hybrid (BACTH) fusion in E. coli BTH101; not shown: T18 domain of Bordetella pertussis adenylate cyclase, C-terminal, kept
Q: How did the “% of wild-type BACTH activity” value (T25-DcuR) turn out when B5 was run?
A: 94%

Q: Does B6 bind [3]?
A: binds

Q: What about the “stoichiometry N” value (His6-DcuR) of the same binder?
A: 0.86 mol DcuR/mol PASC-Kin

Q: With B7 as the binder, how does the “stoichiometry N” value [4] read?
A: 2
